Reference: PMC8833744, “Strategic Decoy Peptides Interfere with MSI1/AGO2 Interaction to Elicit Tumor Suppression Effects” (Cancers, 2022)

Target: recombinant His-tagged AGO2 (UniProt Q9UKV8)
Assay: SPR; Biacore T200; His-AGO2 immobilised on a CM5 chip by amine coupling (~7000 RU); peptides 20 to 1280 nM in HBS-P (10 mM HEPES, 150 mM NaCl, 0.005% T20, pH 7.4), 30 µL/min; Langmuir 1:1 model

Chain of recombinant His-tagged AGO2 (Q9UKV8 whole entry): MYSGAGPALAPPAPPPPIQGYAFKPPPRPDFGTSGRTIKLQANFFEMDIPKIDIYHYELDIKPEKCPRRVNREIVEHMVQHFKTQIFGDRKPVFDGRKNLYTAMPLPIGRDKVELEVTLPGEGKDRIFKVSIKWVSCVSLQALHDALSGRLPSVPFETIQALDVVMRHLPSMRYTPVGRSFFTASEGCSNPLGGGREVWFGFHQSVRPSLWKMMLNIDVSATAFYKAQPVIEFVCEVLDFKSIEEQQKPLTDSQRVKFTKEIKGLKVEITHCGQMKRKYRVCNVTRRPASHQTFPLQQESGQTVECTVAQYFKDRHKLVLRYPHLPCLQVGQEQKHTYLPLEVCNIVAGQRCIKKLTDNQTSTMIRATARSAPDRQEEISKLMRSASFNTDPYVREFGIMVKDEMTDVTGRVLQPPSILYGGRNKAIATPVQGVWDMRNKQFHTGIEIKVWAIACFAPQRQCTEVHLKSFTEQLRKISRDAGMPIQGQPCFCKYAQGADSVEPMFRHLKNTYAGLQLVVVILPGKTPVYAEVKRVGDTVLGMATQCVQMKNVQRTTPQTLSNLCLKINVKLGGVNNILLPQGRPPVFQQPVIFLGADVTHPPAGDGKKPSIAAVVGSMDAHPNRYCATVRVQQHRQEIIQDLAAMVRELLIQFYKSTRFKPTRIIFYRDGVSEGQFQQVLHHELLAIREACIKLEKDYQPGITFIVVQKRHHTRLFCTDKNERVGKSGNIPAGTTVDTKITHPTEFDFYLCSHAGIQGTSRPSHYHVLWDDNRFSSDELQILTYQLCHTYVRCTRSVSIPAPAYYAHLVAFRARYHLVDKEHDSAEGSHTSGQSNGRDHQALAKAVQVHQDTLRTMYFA

Kd: 107 µM
Substance: negative control peptide (CP) as used in the SPR
